According to patent US20240317846A1 (priority 2021, published 2024):
“Also recorded” adds a separate entry of the source. Where two headings read alike, the source gives them in different places.

Tests used:
[1] = test system: severe COVID-19 pneumonia
[2] = test system: COVID-19 associated chronic ARDS; type: in vivo, human
Procedure: Hospitalized subject with confirmed COVID-19 pneumonia and established risk factors for poor outcomes was treated in the ICU for 12 weeks using standard supportive care for chronic acute respiratory distress syndrome (ARDS). […] Patient characteristics, clinical and laboratory outcomes, and adverse events were recorded through duration of hospitalization.

[3] = Pre-clinical toxicology program; type: in vivo; conditions: data not shown
[4] = Four completed clinical trials (healthy volunteers, asthma, rheumatoid arthritis, chronic myelomonocytic leukemia); type: in vivo, human; conditions: 113 individuals received lenzilumab
[5] = test system: SARS-CoV-2 infection; type: in vivo, human; conditions: paper examples
[6] = test system: COVID-19 pneumonia
[7] = test system: severe COVID-19 pneumonia; remark: listed apart in the source
[8] = lenzilumab alone or in the combination of the example
[9] = Lenzilumab group n = 12, control 11
[10] = repeated measures ANOVA, P<0.001

B1: Lenzilumab: first-in-class Humaneered recombinant monoclonal antibody targeting human GM-CSF, derived from mouse antibody LMM102 (antibody, chains of the INN, looked up, V domains shown)
VH: QVQLVQSGAEVKKPGASVKVSCKASGYSFTNYYIHWVRQAPGQRLEWMGWINAGNGNTKYSQKFQGRVTITRDTSASTAYMELSSLRSEDTAVYYCVRRQRFPYYFDYWGQGTLVTVSS
VL: EIVLTQSPATLSVSPGERATLSCRASQSVGTNVAWYQQKPGQAPRVLIYSTSSRATGITDRFSGSGSGTDFTLTISRLEPEDFAVYYCQQFNKSPLTFGGGTKVEIK
- Incidence IMV, ECMO or death ([1]; mITT (n = 236), placebo 21.4): 15.4%
- Kaplan-Meier Estimate of Failure to Achieve SWOV ([1]; mITT (n = 479), Day 28, placebo 22.1%): 15.6%
- Kaplan-Meier Estimate of Failure to Achieve SWOV ([1]; mITT subgroup n = 331 (remdesivir plus steroids per text), placebo 26.9%): 16.3%
- Kaplan-Meier Estimate of Failure to Achieve SWOV ([1]; mITT, >2 days prior (n = 165), placebo 14.4%): 13.7%
- Kaplan-Meier Estimate of Failure to Achieve SWOV ([1]; mITT, CRP <150 mg/L and age <85 (n = 336), placebo 21.1%): 8.5%
- Time to Recovery ([1]; mITT, CRP <150 mg/L, Age <85 (n = 157), placebo 8): 7 median days
- Mortality ([1]; mITT, CRP <150 mg/L, Age <85 (n = 157), placebo 13.8): 6.6%
- Incidence IMV, ECMO or death ([1]; mITT, CRP <150 mg/L, Age <85 (n = 157), placebo 19.5): 7.2%
- Improvement in Time to Recovery ([1]; mITT, CRP<150 mg/L and age<85): 36%
- Kaplan-Meier Estimate of Failure to Achieve SWOV ([1]; mITT, hospitalized 2 days prior or less (n = 297), placebo 27.6%): 16.5%
- Infusion-related reactions ([1]; safety population): no infusion-related reactions
- Serious adverse events, subjects ([1]; safety population, placebo 29.6%): 24.7%
- Adverse events ≥Grade 3, subjects ([1]; safety population, placebo 32.7%): 26.7%
- Improvement in SWOV ([1]; subjects hospitalized <2 days): 88%
- Oxygen demand one week post lenzilumab ([2]; person, lenzilumab on week 13 of hospitalization): decreased from high-flow to low-flow nasal cannula
- Infusion-related or systemic side effects ([2]; single patient): No infusion-related or systemic side effects
- Lymphopenia post lenzilumab ([2]; single patient): appeared to improve
- Time from lenzilumab to discharge home ([2]; single patient, discharged on 4L nasal cannula): Sixteen
- No Observed Adverse Effect Level (NOAEL) [3]: > 100 mg/kg/week
- Safety in completed clinical development studies [4]: No treatment emergent serious adverse events (SAEs) or Suspected Unexpected Serious Adverse Reactions (SUSARSs); also recorded: very well tolerated
- 2 point improvement in the NIAID eight point ordinal hospital scale [5]: faster
- Number of hospital days [5]: reduction
- Permanent pulmonary function impairment [5]: reduction
- Time to recovery (6, 7, or 8 on the eight point ordinal hospital scale) [5]: faster
- Mortality rates [5, 8]: reduction
- Patients requiring ICU admission [5, 8]: reduction
- Patients requiring mechanical ventilation [5, 8]: reduction
- Survival, Kaplan-Meier event estimate (mortality) ([6]; mITT, lenzilumab arm, day 28, placebo 13.9): 9.6%
- Ventilator-Free Survival, Kaplan-Meier event estimate (IMV and/or death) ([6]; mITT, lenzilumab arm, day 28, placebo 22.1): 15.6%
- SAEs attributed to lenzilumab ([6]; phase 3 trial): none were attributed to lenzilumab
- Safety and tolerability ([6]; phase 3 trial): safe and well-tolerated
- Increased likelihood of survival without IMV ([6]; relative to placebo, mITT): 54%
- Increased likelihood of survival ([6]; relative to placebo, not statistically significant): 39% (NS)
- Infusion reactions ([7]; 12 patients): no infusion reactions
- Treatment-emergent adverse events attributable to lenzilumab ([7]; 12 patients): No treatment-emergent adverse events attributable to lenzilumab
- Ventilator-free survival vs untreated group ([7]; Kaplan-Meier, log-rank P=0.06): favored the lenzilumab cohort
- Days to resolution of fever ([7]; Lenzilumab group n = 12): 2 days
- Incidence of IMV ([7]; Lenzilumab group n = 12): (8%)
- Incidence of IMV and/or death, number of patients ([7]; Lenzilumab group n = 12): 1
- Incidence of IMV, number of patients ([7]; Lenzilumab group n = 12): 1
- Incidence of clinical improvement, number of patients ([7]; Lenzilumab group n = 12): 11
- Incidence of death ([7]; Lenzilumab group n = 12): (8%)
- Incidence of death, number of patients ([7]; Lenzilumab group n = 12): 1
- Patients free of ARDS (SpO2/FiO2 of 315 or higher) by the end of observation ([7]; Lenzilumab group n = 12): 92%
- Days to clinical improvement (median) [7, 9]: 5 days
- Days to discharge from hospital (median) [7, 9]: 5 days
- CRP reduction (mean) ([7]; after 4 days of treatment, control −0.95): 135.8
- IL-6 concentration on day 4 following lenzilumab ([7]; baseline 28.6 pg/mL): 8.52 pg/mL
- Mean absolute neutrophil count on day 4 post lenzilumab ([7]; baseline 5.1): 4.8e+09 L⁻¹
- Mean hemoglobin on day 4 post lenzilumab ([7]; baseline 12.9): 11.4 g/dL
- IL-6 reduction ([7]; baseline vs day 4): 20.1
- ALC increase (mean) ([7]; baseline vs day 4, control 0.03): 0.46 × 10*9/L
- Mean temperature reduction ([7]; baseline vs day 4, control 0.459): 1.075
- PLT increase (mean) ([7]; baseline vs day 4, control 63.2): 52.5
- Mean CRP after treatment ([7]; day 4, baseline 172.2 mg/L): 36.4 mg/L
- Cytokines and chemokines involved in the cytokine storm ([7]; one patient, 48 hours post-lenzilumab vs pretreatment): significant reduction
- Mean SpO2/FiO2 over time post-treatment vs untreated [7, 10]: statistically significant difference
- Proportion of patients free of ARDS over time vs untreated [7, 10]: significantly increased
